B1: library; numbered along this chain (parent)
chain: MAAAAAAAAEQQSSNGPVKKSMREKAVERRSVNKEHNSNFKAGYIPIDEDRLHKTGLRGRKGNLAICVIILLFILAVINLIITLVIWAVIRIGPNGCDSMEFHESGLLRFKQVSDMGVIHPLYKSTVGGRRNENLVITGNNQPIVFQQGTTKLSVENNKTSITSDIGMQFFDPRTQNILFSTDYETHEFHLPSGVKSLNVQKASTERITSNATSDLNIKVDGRAIVRGNEGVFIMGKTIEFHMGGNMELKAENSIILNGSVMVSTTRLPSSSSGDQLGSGDWVRYKLCMCADGTLFKVQVTSQNMGCQISDNPCGNTH

Variants of: B1
Test: SGCB cell-surface expression functional score (HA stain, bin4 vs bin1, normalised to synonymous) (log10 ratio); higher = more cell-surface SGCB (functional)
How it was run: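 Human beta-sarcoglycan, tagged with HA and fused to YFP, was built into codon-saturation libraries and delivered by lentivirus at MOI <0.1 into HEK293 cells that stably express alpha-, gamma- and delta-sarcoglycan. After 72 hours, YFP-positive cells were sorted and grown for 5–7 days, then stained on ice with Alexa Fluor 647 anti-HA, fixed, sorted into four 5% intensity bins and amplicon-sequenced. Each variant's functional score is the log ratio of its frequency in the highest bin to that in the lowest bin, taken as the median across codons and transductions. Transductions were done in duplicate, and synonymous variants were scaled per section to mean 0, SD 0.5.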

Variant	SGCB cell-surface expression functional score (log10)
G62P	0.36
G62W	-0.11
G62I	0.26
G62L	0.53
G62S	0.18
G62K	-0.29
G62H	0.18
G62D	0.29
G62V	-0.21
G62N	-0.29
G62C	0.33
G62Y	-0.05
G62E	0.11
G62M	0.13
G62F	0.5
G62Q	0.34
G62T	-0.09
G62A	0.02
G62R	0.23
R60K	0.08
R60P	-0.19
R60T	0.01
R60Y	-0.12
R60C	0.47

Variant	SGCB cell-surface expression functional score (log10)
R60F	-0.05
R60G	-0.33
R60E	0.4
R60N	0.1
R60Q	0.38
R60A	-0.28
R60S	0.18
R60I	0.5
R60H	-0.21
R60L	0.11
R60D	0.39
R60V	-0.09
R60W	-0.101
G59D	0.04
G59A	-0.59
G59P	0.12
G59N	0
G59S	-0.13
G59L	0.09
G59M	0.31
G59T	0.25
G59K	0.12
G59V	0.33
G59C	0.05

Variant	SGCB cell-surface expression functional score (log10)
G59H	0.1
G59E	-0.2
G59R	-0.17
G59I	-0.01
G59F	0.13
G59Q	-0.24
G59Y	0.17
G56F	0.28
G56E	-0.3
G56Q	-0.39
G56S	0.21
G56N	-0.1
G56R	0.14
G56T	0.4
G56P	0.22
G56C	-0.17
G56K	0.41
G56I	0.26
G56Y	0.34
G56W	-0.16
G56A	0.21
G56D	-0.5
G56L	0.23
G56V	0.05

Variant	SGCB cell-surface expression functional score (log10)
G56H	0.15
G56M	-0.31
L57N	0.02
L57E	0.04
L57T	0.18
L57Y	0.49
L57M	0.09
L57W	0.44
L57D	-0.4
L57A	0.45
L57S	0.11
L57C	0.07
L57I	0.49
L57V	0.2
L57R	0.07
L57G	0.28
L57F	0.06
L57H	-0.36
L57P	-0.03
L57K	0.32
L57Q	-0.03
K61M	-0.03
K61G	0.03
K61H	-0.27

Variant	SGCB cell-surface expression functional score (log10)
K61I	0.48
K61R	-0.23
K61N	-0.39
K61C	0.35
K61P	-0.2
K61T	0.03
K61Q	-0.08
K61L	0.26
K61F	0.7
K61E	-0.08
K61W	0.05
K61S	0.07
K61A	-0.12
K61Y	0.64
K61V	0.07
K61D	-0.36
N63V	-0.44
N63D	-0.06
N63H	0.28
N63S	-0.25
N63I	-0.14
N63P	0.32
N63C	-0.16
N63G	0.13

Variant	SGCB cell-surface expression functional score (log10)
N63Q	0.11
N63A	-0.08
N63F	0.08
N63E	-0.28
N63R	0.07
N63K	0.24
N63T	0.43
N63Y	0.25
N63M	-0.11
N63W	0.22
N63L	0.03
T55S	0.22
T55K	-0.06
T55C	0.27
T55Q	-0.62
T55I	0.07
T55M	0.6
T55W	-0.27
T55E	-0.18
T55G	0.16
T55V	-0.07
T55D	0.39
T55P	0.19
T55L	0.08

Variant	SGCB cell-surface expression functional score (log10)
T55Y	0.15
T55A	-0.43
T55H	0.01
T55R	0.21
T55F	0.18
T55N	0.75
R58E	-0.08
R58H	0.19
R58T	0.24
R58P	0.27
R58I	0.13
R58S	-0.22
R58A	0.08
R58V	-0.04
R58C	-0.55
R58G	0
R58K	-0.66
R58W	-0.26
R58M	-0.15
R58D	0.21
R58Y	0.71
R58F	0.09
R58Q	-0.12
R58L	0

Variant	SGCB cell-surface expression functional score (log10)
R58N	0.17
L64W	-0.254
L64G	-0.2
L64P	-0.26
L64T	0.11
L64H	0.16
L64E	-0.26
L64K	0.15
L64R	0.07
L64N	0.28
L64M	-1.4
L64C	0.26
L64I	-0.1
L64A	-0.31
L64Q	0.03
L64F	0.43
L64D	-0.4
L64Y	0.16
L64V	0.25
L64S	0.31
A65S	0.01
A65G	-0.03
A65L	0.15
A65I	0.15

Variant	SGCB cell-surface expression functional score (log10)
A65E	-0.2
A65T	-0.01
A65P	-0.28
A65N	0.06
A65Y	0.12
A65K	0.51
A65R	-0.07
A65Q	-0.13
A65H	-0.17
A65M	-0.02
A65F	0.21
A65V	0.3
A65C	0.32
A65W	0.48
A65D	0.08
I66K	0.5
I66P	-0.35
I66S	0.07
I66N	0.47
I66D	0
I66C	0.65
I66G	0
I66F	-0.03
I66Q	-0.15

Variant	SGCB cell-surface expression functional score (log10)
I66W	0.01
I66M	0.3
I66H	-0.2
I66R	0.43
I66A	-0.11
I66V	0.2
I66Y	0.29
I66T	0.03
I66L	-0.78
I66E	0.12
R51G	-0.17
R51E	0.04
R51Q	0.54
R51L	0.47
R51I	0.36
R51D	-0.06
R51S	0.04
R51M	-0.39
R51Y	0.17
R51F	0.49
R51K	0.63
R51V	0.39
R51C	-0.24
R51W	0.83

Variant	SGCB cell-surface expression functional score (log10)
R51T	0.01
R51P	0.04
R51A	0.1
R51N	0.2
R51H	0
H53A	0.38
H53R	0.29
H53Q	0.39
H53P	0.19
H53G	0.41
H53D	-0.16
H53M	0.08
H53T	0.14
H53E	-0.28
H53V	0.1
H53K	-0.51
H53W	-0.6
H53F	-0.19
H53C	-0.27
H53I	0.12
H53Y	0.27
H53N	0.08
H53S	-0.22
H53L	-0.05

Variant	SGCB cell-surface expression functional score (log10)
C67M	-0.01
C67A	0.57
C67L	0.25
C67I	0.33
C67K	0.29
C67S	0.04
C67D	0.11
C67P	0.26
C67E	0.39
C67F	-0.08
C67V	0.28
C67R	0.08
C67H	0.38
C67G	0.18
C67Q	0.4
C67T	-0.03
C67N	0.19
K54C	0.29
K54R	0.2
K54H	-0.42
K54A	0.23
K54S	0.14
K54Y	0.29
K54T	0.27

Variant	SGCB cell-surface expression functional score (log10)
K54Q	-0.58
K54E	0.02
K54G	0.21
K54N	0.23
K54D	-0.71
K54P	-0.04
K54L	0.21
K54I	0.01
K54M	-0.19
K54V	0.08
K54W	0.69
K54F	-0.13
L52Y	0.25
L52R	0.05
L52V	0.17
L52H	0.01
L52T	0.42
L52M	0.34
L52K	-0.26
L52G	0.29
L52S	-0.1
L52E	0.55
L52C	0.09
L52A	0.22

Variant	SGCB cell-surface expression functional score (log10)
L52F	0.04
L52N	0.27
L52I	-0.3
L52D	0.39
L52W	-0.3
L52Q	0.35
L52P	0.32
D50G	0.3
D50K	0.54
D50W	-0.47
D50R	0.28
D50V	-0.03
D50H	0.24
D50P	-0.16
D50Q	0.04
D50Y	0
D50I	0.07
D50M	0.2
D50T	0.44
D50N	0.29
D50S	0.26
D50L	0.12

Reference: the supplement of paper PMC10266784
